This note sets out measurements from US20240327512A1 (DUKE UNIVERSITY, published 2024).

In assay [1] the target is T1, human TREM2 (Triggering Receptor Expressed on Myeloid cells-2), wild-type (human, UniProt Q9NZC2 19-230).
T1 sequence (looked up): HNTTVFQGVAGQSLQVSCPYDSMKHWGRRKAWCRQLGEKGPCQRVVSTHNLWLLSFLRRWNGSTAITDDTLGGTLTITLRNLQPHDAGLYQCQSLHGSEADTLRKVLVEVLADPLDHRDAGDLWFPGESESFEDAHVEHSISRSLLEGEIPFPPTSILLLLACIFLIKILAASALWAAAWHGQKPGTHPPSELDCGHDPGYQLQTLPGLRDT
Briefly: cell-based or functional assay.

Assay [2] deals with T1, human TREM2 (Triggering Receptor …). Briefly: hybridoma supernatant screen: peptide ELISA and detection of TREM2 on the cell surface. As for the experimental part: Human TREM2-reactive hybridoma supernatants are screened for their ability to detect TREM2 on the cell surface of HEK293 Flp-In cells stably overexpressing human wild-type TREM2. This procedure is described in Kleinberger, G., et al., TREM2 mutations implicated in neurodegeneration impair cell surface transport and phagocytosis. Sci Transl Med, 2014. 6(243): p. 243. In particular, HEK293 Flp-In cells either expressing human full-length TREM2 or empty vector (control) are incubated with the respective TREM2-reactive supernatants. Binding of TREM2-reactive supernatants is visualized using isotype-specific antibodies. A detailed description of the generation and selection of monoclonal antibodies against the TREM2 cleavage site is given in the Examples.
A peptide comprising the amino acid sequence of residues 145-155 (SEQ ID NO:2) of human TREM2 or residues 153-162 (SEQ ID NO:3) of human TREM2 was synthesized and coupled at the N-terminus to ovalbumin or biotin (Peps4LS, Heidelberg, Germany). Rats were immunized subcutaneously (s.c.) and intraperitoneally (i.p.) with a mixture of 50 μg OVA-coupled peptide in […] PBS, 5 nmol CpG2006 (TIB MOLBIOL, Berlin, Germany), and […] incomplete Freund's adjuvant. After 6 weeks, a boost without Freund's adjuvant was given i.p. and s.c. 3 days before fusion. Fusion of the myeloma cell line P3X63-Ag8.653 with the rat immune spleen cells was performed using polyethylene glycol 1500 according to standard procedure (Koehler and Milstein, Nature. 1975, 256:495-497). After fusion, the cells were plated in 96-well plates using RPMI 1640 with 20% fetal calf serum, penicillin/streptomycin, glutamine, pyruvate, and non-essential amino acids supplemented with HAT HybriMax medium supplement (Sigma,). Hybridoma supernatants were tested in an enzyme-linked immunoassay using biotinylated peptides (0.2 μg/ml) comprising the amino acid sequence of residues 145-155 of human TREM2 or residues 153-162 of human TREM2 bound to avidin-coated plates. After blocking with PBS/2% FCS, hybridoma supernatants were added for 30 min. After one wash with PBS, bound antibodies were detected with a cocktail of HRP-conjugated mAbs against the four rat IgG isotypes. HRP was visualized with ready to use TMB substrate (1-Step™ Ultra TMB-ELISA, Thermo).

Where a chain is given by its changes, count along the chain named.

B1: antibody clone 9D10 (antibody, V domains shown)
VH: EVQLVESGGGLVQPGRSLKLSCAASGFTFSDYGMAWVRQAPTKGLEWVASISNSGGRTFYRDSVKGRFTVSRDNAKSTLYLQMDSLRSEGTATYYCTTIGGGSTFDYWGQGVMVTVSS
VL: DVVMTQTPPSLSVAIGQSVSISCKSSQSLVYSDGKTYLHWLLQSPGRSPKRLIYQVSNLGSGVPDRFSGTGSQKDFTLKISRVEAEDLGVYYCAQTTHFPPTFGSGTKLEIK
With B1, in assay [1], the “decrease of TREM2 cleavage” value was around 70% and the “increase of the level of mature TREM2” value was at most 5 fold.

B2: antibody clone 14B3 (antibody, V domains shown)
VH: B1 VH with T28S, D31N, S54N, V70I, D84H, G90D
VL: B1 VL with I21M, R47G
For B2, in assay [1], the “decrease of TREM2 cleavage” value was around 70% and the “increase of the level of mature TREM2” value is at most 5 fold.

B3: antibody clone 13F4 (antibody, V domains shown)
VH: B1 VH with Q3H, G26R, D31N, G66A, V70I, N74S, K76E, G90D
VL: B1 VL
On to B3, for which, in assay [1], the “decrease of TREM2 cleavage” value was around 70% and the “increase of the level of mature TREM2” value is at most 5 fold.

B4: antibody clone 7F12 (antibody, V domains shown)
VH: B1 VH with D31N, A49T, N53Y, F59Y, V70I, G90D, T91S, T98P, I99V
VL: B1 VL
For B4, in assay [1], the “decrease of TREM2 cleavage” value is around 70% and the “increase of the level of mature TREM2” value is at most 5 fold.

B5: antibody clone 21A3 (antibody, V domains shown)
VH: EVKLLESGGGLVQPGGSMRLSCAASGFTFTDFYMNWIRQPAGKAPEWLGLIRNKANGYTTQYNPSVKGRFTISRDNTQNMLYLQMNTLRGEDTATYYCARIGINNGGSLDYWGQGVMVTVSS
VL: DILINQSPASLTVSAGEKVTMSCKSSQSLLYSEKNQDYLAWYQQKPGQSPKLLMYGASYRHTGVPDRFTGSGSGTDFTLTISSVQAEDLADYYCEQTYSYPYTFGAGTKLELK
notes: Rat monoclonal IgG from hybridoma; also called TREMX antibody
Consider B5, for which, in assay [2], the binding result is on record as “binds”.

B6: antibody clone 7A12 (antibody, V domains shown)
VH: B5 VH
VL: B5 VL
notes: as for B5
Consider B6, for which the binding result in assay [2] is given as “binds”.

B7: antibody clone 8A11 (antibody, V domains shown)
VH: B5 VH with A55T, N56K, Q61E, P64T, T87S, G90P, I103V
VL: B5 VL with N5I, E17A, K18R, K34N, S49F, M54I, Y59N
notes: as for B5
In the case of B7, in assay [2], the binding result is recorded as “binds”.

B8: antibody clone 1G6 (antibody, V domains shown)
VH: B5 VH with M18L, A23V, Y58F, Q61E, N79H, G90A
VL: B5 VL with A15T, K34N, N35K, S49F, M54I, Y59N, S82N, S83I
notes: as for B5
With B8, the binding result in assay [2] is “binds”.

B9: antibody clone 10C3 (antibody, V domains shown)
VH: B5 VH with K43E, A44T, A55T, N56K, Q61E, T87S, G90P, I103T
VL: B5 VL with N5I, E17A, K18R, K34N, S49F, M54I, Y59N
notes: as for B5
Turning to B9, the binding result in assay [2] is “binds”.

B10: antibody clone 14D3 (antibody, V domains shown)
VH: B5 VH with S7F, K43R, A55T, N56K, Q61E, P64R, T87S, G90P, I103V
VL: B5 VL with N5I, E17A, K18R, K34N, S49F, M54I, Y59N
notes: as for B5
Turning to B10, the binding result in assay [2] is “binds”.

B11: antibody clone 18F9 (antibody, V domains shown)
VH: B5 VH with A23V, A24V, P40A, A55V, T59R, Q61E, T77I, G90A
VL: B5 VL with K34N, S49F, M54I, Y59N
notes: as for B5
B11: the binding result in assay [2] is recorded as “binds”.

B12: antibody clone 15C5 (antibody, V domains shown)
VH: B5 VH with N56Y, Q61E, N79D, G90A, N105Y
VL: B5 VL with M21V, K34S, S49F, M54I, D91H
notes: as for B5
Take B12: the binding result in assay [2] was “binds”.

B13: antibody clone 14D8 (antibody, V domains shown)
VH: B5 VH with Q61V
VL: B5 VL with A15T, K24R, S49F, M54I
notes: as for B5
As to B13, in assay [2], the binding result is “binds”.
